Results on two molecules are retold here after US6960658B1, “Maspin transcriptional regulatory sequences and uses thereof” (Dana-Farber Cancer Institute, Inc., priority 1996, dated 2005).

The test system of assay [1] is maspin HRE element (pBLAp1/HRE reporter) in CF3 and LNCaP cells. The assay is described as follows: CAT assay of pBLAp1/HRE construct with or without androgen (R1881) treatment. The class given is cell-based, human. To be noted: 50 nM R1881 vs vehicle added after transfection. As for the experimental part: For construction of pBLAp1/HRE, pairs of OL8 and OL9 oligos were annealed as described above. The annealed product was phosphorylated by T4 polynucleotide kinase, and ligated to the BamHI site of pBLAp1 (pBLCAT2 containing three copies of Ap1) to generate pBLAp1/HRE (FIG. 12).
Cells were plated at 1 ×106/p100 and grown to about 75% confluence. SNA was transfected by the method of modified DEAE-Dextran (Promega, Inc., Madison, Wis.). The amounts of DNAs used were: 10 μg reporter plasmid, except for PCMVCAT in which only 2 μg of DNA was used. 1 μg of pCMVβgal was used as an internal control for transfection efficiency. For the androgen treatment, 50 nM methyltrienolone.(R1881, from Du Pont-New England Nuclear, Inc., Boston, Mass.) or vehicle was added to the cultures after transfection. […] The β-galactosidase activity in the extracts was calculated as described by Swisshelm et al. (Cell Growth Differ. 5:133, 1994). Twenty units of extracts (calculated by β-galactosidase activity) were used for each CAT assay except for transfection with pCMVCAT positive control in which only 10 units of extracts were used because of high activity. […] Quantitation of acetylated […] and nonacetylated chloramphenicol was performed by cutting out the appropriate regions of the silica gel TLC plate and counting in BioFluor (DuPont, Wilmington, Del.). […]

The test system of assay [2] is tumor cells. To be noted: Sager et al. 1995; cited from earlier work.
Assay [3] has as its system tumor cells. The conditions noted are these: expressed in tumor transfectants or added as recombinant maspin; Sheng et al. 1994; cited from earlier work.

In the case of `C[C@]1(O)CC[C@H]2[C@@H]3CCC4=CC(=O)CCC4=C3C=C[C@@]21C` [R1881, methyltrienolone], in assay [1], the “effect of R1881 treatment on HRE-mediated inhibition of promoter (CAT) activity” value is given as “Little difference in inhibition”.

B1: Maspin: a serpin expressed in normal human mammary epithelial cells (protein, UniProt P36952 1-375, looked up)
Serpin B5: MDALQLANSAFAVDLFKQLCEKEPLGNVLFSPICLSTSLSLAQVGAKGDTANEIGQVLHFENVKDVPFGFQTVTSDVNKLSSFYSLKLIKRLYVDKSLNLSTEFISSTKRPYAKELETVDFKDKLEETKGQINNSIKDLTDGHFENILADNSVNDQTKILVVNAAYFVGKWMKKFSESETKECPFRVNKTDTKPVQMMNMEATFCMGNIDSINCKIIELPFQNKHLSMFILLPKDVEDESTGLEKIEKQLNSESLSQWTNPSTMANAKVKLSIPKFKVEKMIDPKACLENLGLKHIFSEDTSDFSGMSETKGVALSNVIHKVCLEITEDGGDSIEVPGARILQHKDELNADHPFIYIIRHNKTRNIIFFGKFCSP
As to B1, in the assay on tumor cells [2], the “mobility of tumor cells” value was “inhibit mobility of tumor cells”. For the same molecule, the “invasion in a Boyden chamber assay” value in the assay with tumor cells [3] is reported as “inhibits invasion”.
